The chains are these.
B1: C-A11 (antibody, V domains shown)
VH: QSLEESGGRLVTPGTPLTLTCTVSGFSLSTYAMSWVRQAPGKGLEWIGVIASNADTYYASWAKGRITISKTSTTVDLKITSPTTEDTATYFCARHPGSAGYGYAVYYAMDPWGPGTLVTVSS
VL: AIEMTQSPSSLAASVGDTVTITCKASEDIRYGLNWYQQKLGIAPKLLIYGANTLEAGVPSRFSGSGSETDYTLTISSVQAEDAGIYYCQQGYSTPLTFGAGTKVEIK
B2: hN2F (antibody, V domains shown)
VH: EVQLVESGGGLVQPGGSLRLSCTVSGFSLSTYAMSWVRQAPGKGLEWIGVIASNADTYYASWAKGRFTISRDNSKNTLYLQMNSLRAEDTAVYYCARHPGSAGYGYAVYYAMDPWGQGTLVTVSS
VL: DIQMTQSPSSLSASVGDRVTITCKASEDIRYGLNWYQQKPGKAPKLLIYGANTLEAGVPSRFSGSGSGTDFTLTISSLQPEDFATYYCQQGYSTPLTFGGGTKVEIK
B3: LxC1-G10 (antibody, V domains shown)
VH: EVQLVESGGGLVQPGGSLRLSCTVSGFSLSTYAMSWVRQAPGKGLEWIGVIASNADTYYASWAKGRFTISRDNSKNTLYLQMNSLRAEDTAVYYCARHPGSAGYGYAVYYAMDPWGQGTLVTVSS
VL: DIQMTQSPSSLSASVGDRVTITCQASERVFYGIDWYQQKPGKAPKLLIYGASALWHGVPSRFSGSGSGTDYTLTISSLQPEDFATYYCQQGYMVPIGFGGGTKVEIK
B4: hN2Y (antibody, V domains shown)
VH: EVQLVESGGGLVQPGGSLRLSCTVSGFSLSTYAMSWVRQAPGKGLEWIGVIASNADTYYASWAKGRFTISRDNSKNTLYLQMNSLRAEDTAVYYCARHPGSAGYGYAVYYAMDPWGQGTLVTVSS
VL: DIQMTQSPSSLSASVGDRVTITCKASEDIRYGLNWYQQKPGKAPKLLIYGANTLEAGVPSRFSGSGSGTDYTLTISSLQPEDFATYYCQQGYSTPLTFGGGTKVEIK
B5: rabbit monoclonal antibody C-A11 (antibody, V domains shown)
VH: QSLEESGGRLVTPGTPLTLTCTVSGFSLSTYAMSWVRQAPGKGLEWIGVIASNADTYYASWAKGRITISKTSTTVDLKITSPTTEDTATYFCARHPGSAGYGYAVYYAMDPWGPGTLVTVSS
VL: AIEMTQSPSSLAASVGDTVTITCKASEDIRYGLNWYQQKLGIAPKLLIYGANTLEAGVPSRFSGSGSETDYTLTISSVQAEDAGIYYCQQGYSTPLTFGAGTKVEIK
B6: humanized antibody hN2Y (antibody, V domains shown)
VH: EVQLVESGGGLVQPGGSLRLSCTVSGFSLSTYAMSWVRQAPGKGLEWIGVIASNADTYYASWAKGRFTISRDNSKNTLYLQMNSLRAEDTAVYYCARHPGSAGYGYAVYYAMDPWGQGTLVTVSS
VL: DIQMTQSPSSLSASVGDRVTITCKASEDIRYGLNWYQQKPGKAPKLLIYGANTLEAGVPSRFSGSGSGTDYTLTISSLQPEDFATYYCQQGYSTPLTFGGGTKVEIK
B7: humanized antibody hN2F (antibody, V domains shown)
VH: EVQLVESGGGLVQPGGSLRLSCTVSGFSLSTYAMSWVRQAPGKGLEWIGVIASNADTYYASWAKGRFTISRDNSKNTLYLQMNSLRAEDTAVYYCARHPGSAGYGYAVYYAMDPWGQGTLVTVSS
VL: DIQMTQSPSSLSASVGDRVTITCKASEDIRYGLNWYQQKPGKAPKLLIYGANTLEAGVPSRFSGSGSGTDFTLTISSLQPEDFATYYCQQGYSTPLTFGGGTKVEIK

One experiment deals with Epsilon (B.1.427).
Broadly, the IC50 is the concentration at which inhibition is half-maximal. Read a low IC50 as inhibition by little substance. B1 returned an IC50 of 0.014 µg/mL.

Take B2: the midpoint of inhibition, the IC50, lay at 0.0178 µg/mL. The IC50 values of the last two molecules are within 1.5-fold of each other.

For B3, the midpoint of inhibition, the IC50, lay at 0.0169 µg/mL. This IC50 and that of the molecule before are within 1.5-fold of each other.

B4: it took 0.018 µg/mL to reach half-maximal inhibition (IC50).

A further experiment has as its target SARS-CoV-2 spike protein trimer, wild type (SARS-CoV-2, UniProt P0DTC2 16-1213).
With B5, half-maximal inhibition (IC50) was put at 0.027 µg/mL.

Take B6: half-maximal inhibition (IC50) required 0.0382 µg/mL.

For B7, the half-maximal inhibitory concentration (IC50) came out at 0.0246 µg/mL.

For the origin of these results see patent publication US20240352445A1 (published 2024).
